Data as given in publication PMC10253835, “Plakophilin-3 Binds the Membrane and Filamentous Actin without Bundling F-Actin” (International Journal of Molecular Sciences, 2023).

Biological target: the molecule itself
Experiment: SEC; purified plakophilin-3 on Superdex S-200 10/300; methods give 20 mM Tris pH 7.5, 150 mM NaCl, 1 mM dithiothreitol; dimer and monomer peaks pooled and reloaded; more dimer at higher concentration and lower reducing conditions, mainly monomer with dithiothreitol or TCEP

B1: plakophilin-3 (residues 305-797) (domain or fragment, human, UniProt Q9Y446 305-797, looked up)
chain: SHRTLQRLSSGFDDIDLPSAVKYLMASDPNLQVLGAAYIQHKCYSDAAAKKQARSLQAVPRLVKLFNHANQEVQRHATGAMRNLIYDNADNKLALVEENGIFELLRTLREQDDELRKNVTGILWNLSSSDHLKDRLARDTLEQLTDLVLSPLSGAGGPPLIQQNASEAEIFYNATGFLRNLSSASQATRQKMRECHGLVDALVTSINHALDAGKCEDKSVENAVCVLRNLSYRLYDEMPPSALQRLEGRGRRDLAGAPPGEVVGCFTPQSRRLRELPLAADALTFAEVSKDPKGLEWLWSPQIVGLYNRLLQRCELNRHTTEAAAGALQNITAGDRRWAGVLSRLALEQERILNPLLDRVRTADHHQLRSLTGLIRNLSRNARNKDEMSTKVVSHLIEKLPGSVGEKSPPAEVLVNIIAVLNNLVVASPIAARDLLYFDGLRKLIFIKKKRDSPDSEKSSRAASSLLANLWQYNKLHRDFRAKGYRKEDFLGP
notes: pET28 construct with eight histidines followed by an HRV-3C site at the amino terminus; no cleavage step is described; The protein is found as monomer and as homodimer; also called armadillo repeat motif domain of plakophilin-3; Pkp3; source: E. coli BL21(DE3) Rosetta2, purified (Ni-nitriloacetic acid column, Superdex S-200 size exclusion)
How did the “stoichiometry N” value turn out when B1 was run?
The value was 2.
